Test results taken from patent US10766960 (dated 2020).
Where two headings read alike, the source gives them in different places.

Key:
Test in all cases: SPR
[1] = molecular target: T1, FcgRIIb (human, UniProt P31994)
T1 chain: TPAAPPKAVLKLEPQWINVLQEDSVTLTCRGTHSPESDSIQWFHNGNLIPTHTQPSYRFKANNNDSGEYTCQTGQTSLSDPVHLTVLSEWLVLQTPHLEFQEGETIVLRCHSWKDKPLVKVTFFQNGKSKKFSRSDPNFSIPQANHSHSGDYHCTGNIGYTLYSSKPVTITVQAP

[2] = molecular target: T2, FcgRIIIa V (human, UniProt P08637)
[3] = molecular target: T3, FcgRIa (human, UniProt P12314)
T3 chain: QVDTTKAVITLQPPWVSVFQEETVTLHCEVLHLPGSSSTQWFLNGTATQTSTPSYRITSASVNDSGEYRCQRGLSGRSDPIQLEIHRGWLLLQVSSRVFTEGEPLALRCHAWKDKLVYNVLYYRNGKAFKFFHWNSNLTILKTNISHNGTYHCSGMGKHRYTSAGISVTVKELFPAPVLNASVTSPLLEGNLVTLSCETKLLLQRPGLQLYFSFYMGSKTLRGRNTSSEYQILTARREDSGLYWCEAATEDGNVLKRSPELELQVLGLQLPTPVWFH

[4] = molecular target: T4, FcgRIIa H (human, UniProt P12318)
T4 chain: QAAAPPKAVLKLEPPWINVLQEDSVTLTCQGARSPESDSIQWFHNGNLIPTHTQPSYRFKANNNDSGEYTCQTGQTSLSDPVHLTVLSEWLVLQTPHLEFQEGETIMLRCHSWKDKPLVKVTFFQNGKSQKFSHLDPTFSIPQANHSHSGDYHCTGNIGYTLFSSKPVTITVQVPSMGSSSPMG

[5] = molecular target: T5, FcgRIIa R (human, UniProt P12318)
T5 chain: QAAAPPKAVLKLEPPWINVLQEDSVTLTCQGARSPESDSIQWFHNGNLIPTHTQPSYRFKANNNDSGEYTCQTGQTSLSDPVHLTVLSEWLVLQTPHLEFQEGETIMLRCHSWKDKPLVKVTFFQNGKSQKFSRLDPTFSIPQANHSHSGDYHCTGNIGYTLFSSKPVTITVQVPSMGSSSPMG

[6] = molecular target: T6, FcgRIIIa F (human, UniProt P08637)
[7] = molecular target: T5, FcgRIIa R
[8] = molecular target: T4, FcgRIIa H
[9] = molecular target: T2, FcgRIIIa V; remark: listed apart in the source
[10] = molecular target: T6, FcgRIIIa F; remark: listed apart in the source
[11] = molecular target: T1, FcgRIIb
[12] = molecular target: T6, FcgRIIIa F; remark: listed apart in the source

T6 sequence (P08637 17-208): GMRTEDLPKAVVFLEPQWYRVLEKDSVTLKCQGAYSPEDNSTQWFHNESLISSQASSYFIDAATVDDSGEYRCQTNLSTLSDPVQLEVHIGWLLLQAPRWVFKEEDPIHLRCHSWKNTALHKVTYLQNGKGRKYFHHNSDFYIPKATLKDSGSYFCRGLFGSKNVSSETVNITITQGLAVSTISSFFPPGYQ
T2 sequence (P08637 17-208 F176V): as the sequence (P08637 17-208) above, with F160V counted along it

B1: H240-Kn037/H240-Hl036/L73-k0 (antibody)
chain 1: QDQLVQSGAEVKKPGASVKVSCKASGFNIKDTYIQWVRQAPGQGLEWMGRIDPLRKQTKYREKFEGRVTITADTSTNTAYMELSSLRSEDTAVYYCVRSGREFDYWGQGTLVTVSSASTKGPSVFPLAPSSKSTSGGTAALGCLVKDYFPEPVTVSWNSGALTSGVHTFPAVLQSSGLYSLSSVVTVPSSSLGTQTYICNVNHKPSNTKVDKKVEPKSCDKTHTCPPCPAPELLAGPDVFLFPPKPKDTLMISRTPEVTCVVVDVSHEDPEVKFNWYVDGVEVHNAKTKPREEQYNSTYRVVSVLTVLHQDWLNGKEYKCKVSNKALPAPEEKTISKAKGQPREPQVCTLPPSRDELTKNQVSLWCLVKGFYPSDIAVEWESNGQPENNYKTTPPVLDSDGSFFLYSKLTVDKSRWQQGNVFSCSVMHEALHNHYTQKSLSLSP
chain 2: QDQLVQSGAEVKKPGASVKVSCKASGFNIKDTYIQWVRQAPGQGLEWMGRIDPLRKQTKYREKFEGRVTITADTSTNTAYMELSSLRSEDTAVYYCVRSGREFDYWGQGTLVTVSSASTKGPSVFPLAPSSKSTSGGTAALGCLVKDYFPEPVTVSWNSGALTSGVHTFPAVLQSSGLYSLSSVVTVPSSSLGTQTYICNVNHKPSNTKVDKKVEPKSCDKTHTCPPCPAPELLAGPDVFLFPPKPKDTLMISRTPEVTCVVVDVSHEDPEVKFNWYVDGVEVHNAKTKPREEQYNSTYRVVSVLTVLHQDWLNGKEYKCKVSNKALPAPEEKTISKAKGQPREPQVYTLPPSRCELTKNQVSLSCAVKGFYPSDIAVEWESNGQPENNYKTTPPVLDSDGSFFLVSKLTVDKSRWQQGNVFSCSVMHEALHNHYTQKSLSLSP
chain 3: DIQMTQSPSSLSASVGDRVTITCRASQDIHKYIAWYQQKPGQAPRLLIQYTSTLQPGVPSRFSGSGSGTDYTFTISSLQPEDIATYYCLQYEQLRTFGGGTKVEIKRTVAAPSVFIFPPSDEQLKSGTASVVCLLNNFYPREAKVQWKVDNALQSGNSQESVTEQDSKDSTYSLSSTLTLSKADYEKHKVYACEVTHQGLSSPVTKSFNRGEC
- Kd [1]: 380 nM
- Kd [2]: 6.8 nM
- Kd [3]: 0.098 nM
- Kd [4]: 46 nM
- Kd [5]: 29 nM
- Kd [6]: 21 nM

B2: IL6R-BP208/IL6R-L (antibody)
chain 1: QVQLQESGPGLVKPSETLSLTCAVSGHSISHDHAWSWVRQPPGEGLEWIGFISYSGITNYNPSLQGRVTISRDNSKNTLYLQMNSLRAEDTAVYYCARSLARTTAMDYWGEGTLVTVSSASTKGPSVFPLAPSSKSTSGGTAALGCLVKDYFPEPVTVSWNSGALTSGVHTFPAVLQSSGLYSLSSVVTVPSSSLGTQTYICNVNHKPSNTKVDKKVEPKSCDKTHTCPPCPAPDLLGDDSVFLFPPKPKDTLMISRTPEVTCVVVDVSDEDGEVKFNWYVDGVEVHNAKTKPREEQYNSTYRVVSVLTVLHQDWLNGKEYKCKVSNKALPRPIEKTISKAKGQPREPQVYTLPPSRDELTKNQVSLTCLVKGFYPSDIAVEWESNGQPENNYKTTPPVLDSDGSFFLYSKLTVDKSRWQQGNVFSCSVMHEALHNHYTQESLSLSP
chain 2: not shown
- Kd [7]: 850 nM
- Kd [8]: 8300 nM
- Kd [9]: 53000 nM

B3: GpH7-TA7/GpH7-B78/GpL16-k0 (antibody)
chain 1: QVQLVQSGAEVKKPGASVTVSCKASGYTFTDYEMHWIRQPPGEGLEWIGAIDPKTGDTAYSESFQDRVTLTADKSTSTAYMELSSLTSEDTAVYYCTRFYSYTYWGQGTLVTVSSASTKGPSVFPLAPSSKSTSGGTAALGCLVKDYFPEPVTVSWNSGALTSGVHTFPAVLQSSGLYSLSSVVTVPSSSLGTQTYICNVNHKPSNTKVDKKVEPKSCDKTHTCPPCPAPEYLWGPSVFLFPPKPKDTLMISRTPEVTCVVVDVSHEDPEVKFNWYVDGVEVHNAKTKPREEQYNATYRVVSVLTVLHQDWLNGKEYKCKVSNKALPAPIEKTISKAKGQPREPQVYTLPPSRKELTKNQVSLTCLVKGFYPSDIAVEWESNGQPENNYKTTPPVLDSDGSFFLYSKLTVDKSRWQQGNVFSCSVMHEALHNRYTQKSLSLSP
chain 2: QVQLVQSGAEVKKPGASVTVSCKASGYTFTDYEMHWIRQPPGEGLEWIGAIDPKTGDTAYSESFQDRVTLTADKSTSTAYMELSSLTSEDTAVYYCTRFYSYTYWGQGTLVTVSSASTKGPSVFPLAPSSKSTSGGTAALGCLVKDYFPEPVTVSWNSGALTSGVHTFPAVLQSSGLYSLSSVVTVPSSSLGTQTYICNVNHKPSNTKVDKKVEPKSCDKTHTCPPCPAPELLGGPDVFLFPPKPKDTLMISRTPEVTCVVVDVSHEDPEVKFNWYVDGVEVHNAKTKPREEQYNSTYRVVSVLTVLHQDWLNGKEYKCKVSNKALPLPEEKTISKAKGQPREPQVYTLPPSRDELTKNQVSLTCLVKGFYPSDIAVEWESNGQPENNYKTTPPVLDSDGSFFLYSKLTVDKSRWQQGNVFSCSVMHEALHNHYTQESLSLSP
chain 3: DIVMTQSPLSLPVTPGEPASISCQASESLVHSNRNTYLHWYLQKPGQSPQLLIYKVSNRFSGVPDRFSGSGSGTDFTLKISRVEAEDVGVYYCSQNTHVPPTFGQGTKVEIERTVAAPSVFIFPPSDEQLKSGTASVVCLLNNFYPREAKVQWKVDNALQSGNSQESVTEQDSKDSTYSLSSTLTLSKADYEKHKVYACEVTHQGLSSPVTKSFNRGEC
- Kd [10]: 4.1 nM
- Kd [11]: 1100 nM
- Kd [12]: 4.7 nM

B4: GpH7-TA22/GpH7-B78/GpL16-k0 (antibody)
chain 1: QVQLVQSGAEVKKPGASVTVSCKASGYTFTDYEMHWIRQPPGEGLEWIGAIDPKTGDTAYSESFQDRVTLTADKSTSTAYMELSSLTSEDTAVYYCTRFYSYTYWGQGTLVTVSSASTKGPSVFPLAPSSKSTSGGTAALGCLVKDYFPEPVTVSWNSGALTSGVHTFPAVLQSSGLYSLSSVVTVPSSSLGTQTYICNVNHKPSNTKVDKKVEPKSCDKTHTCPPCPAPEYLWGPDVFLFPPKPKDTLMISRTPEVTCVVVDVSHEDPEVKFNWYVDGVEVHNAKTKPREEQYNATYRVVSVLTVLHQDWLNGKEYKCKVSNKALPAPIEKTISKAKGQPREPQVYTLPPSRKELTKNQVSLTCLVKGFYPSDIAVEWESNGQPENNYKTTPPVLDSDGSFFLYSKLTVDKSRWQQGNVFSCSVMHEALHNRYTQKSLSLSP
chain 2: QVQLVQSGAEVKKPGASVTVSCKASGYTFTDYEMHWIRQPPGEGLEWIGAIDPKTGDTAYSESFQDRVTLTADKSTSTAYMELSSLTSEDTAVYYCTRFYSYTYWGQGTLVTVSSASTKGPSVFPLAPSSKSTSGGTAALGCLVKDYFPEPVTVSWNSGALTSGVHTFPAVLQSSGLYSLSSVVTVPSSSLGTQTYICNVNHKPSNTKVDKKVEPKSCDKTHTCPPCPAPELLGGPDVFLFPPKPKDTLMISRTPEVTCVVVDVSHEDPEVKFNWYVDGVEVHNAKTKPREEQYNSTYRVVSVLTVLHQDWLNGKEYKCKVSNKALPLPEEKTISKAKGQPREPQVYTLPPSRDELTKNQVSLTCLVKGFYPSDIAVEWESNGQPENNYKTTPPVLDSDGSFFLYSKLTVDKSRWQQGNVFSCSVMHEALHNHYTQESLSLSP
chain 3: DIVMTQSPLSLPVTPGEPASISCQASESLVHSNRNTYLHWYLQKPGQSPQLLIYKVSNRFSGVPDRFSGSGSGTDFTLKISRVEAEDVGVYYCSQNTHVPPTFGQGTKVEIERTVAAPSVFIFPPSDEQLKSGTASVVCLLNNFYPREAKVQWKVDNALQSGNSQESVTEQDSKDSTYSLSSTLTLSKADYEKHKVYACEVTHQGLSSPVTKSFNRGEC
- Kd [10]: 1.3 nM
